To fix the notation:
B1: Centrosomal P4.1-associated protein (Homo sapiens), Q9HC77 (parent)
chain: MFLMPTSSELNSGQNFLTQWMTNPSRAGVILNRGFPILEADKEKRAAVDISTSFPIKGTHFSDSFSFINEEDSLLEEQKLESNNPYKPQSDKSETHTAFPCIKKGPQVAACHSAPGHQEENKNDFIPDLASEFKEGAYKDPLFKKLEQLKEVQQKKQEQLKRQQLEQLQRLMEEQEKLLTMVSGQCTLPGLSLLPDDQSQKHRSPGNTTTGERATCCFPSYVYPDPTQEETYPSNILSHEQSNFCRTAHGDFVLTSKRASPNLFSEAQYQEAPVEKNNLKEENRNHPTGESILCWEKVTEQIQEANDKNLQKHDDSSEVANIEERPIKAAIGERKQTFEDYLEEQIQLEEQELKQKQLKEAEGPLPIKAKPKQPFLKRGEGLARFTNAKSKFQKGKESKLVTNQSTSEDQPLFKMDRQQLQRKTALKNKELCADNPILKKDSKARTKSGSVTLSQKPKMLKCSNRKSLSPSGLKIQTGKKCDGQFRDQIKFENKVTSNNKENVTECPKPCDTGCTGWNKTQGKDRLPLSTGPASRLAAKSPIRETMKESESSLDVSLQKKLETWEREKEKENLELDEFLFLEQAADEISFSSNSSFVLKILERDQQICKGHRMSSTPVKAVPQKTNPADPISHCNRSEDLDHTAREKESECEVAPKQLHSLSSADELREQPCKIRKAVQKSTSENQTEWNARDDEGVPNSDSSTDSEEQLDVTIKPSTEDRERGISSREDSPQVCDDKGPFKDTRTQEDKRRDVDLDLSDKDYSSDESIMESIKHKVSEPSRSSSLSLSKMDFDDERTWTDLEENLCNHDVVLGNESTYGTPQTCYPNNEIGILDKTIKRKIAPVKRGEDLSKSRRSRSPPTSELMMKFFPSLKPKPKSDSHLGNELKLNISQDQPPGDNARSQVLREKIIELETEIEKFKAENASLAKLRIERESALEKLRKEIADFEQQKAKELARIEEFKKEEMRKLQKERKVFEKYTTAARTFPDKKEREEIQTLKQQIADLREDLKRKETKWSSTHSRLRSQIQMLVRENTDLREEIKVMERFRLDAWKRAEAIESSLEVEKKDKLANTSVRFQNSQISSGTQVEKYKKNYLPMQGNPPRRSKSAPPRDLGNLDKGQAASPREPLEPLNFPDPEYKEEEEDQDIQGEISHPDGKVEKVYKNGCRVILFPNGTRKEVSADGKTITVTFFNGDVKQVMPDQRVIYYYAAAQTTHTTYPEGLEVLHFSSGQIEKHYPDGRKEITFPDQTVKNLFPDGQEESIFPDGTIVRVQRDGNKLIEFNNGQRELHTAQFKRREYPDGTVKTVYANGHQETKYRSGRIRVKDKEGNVLMDTEL
partner: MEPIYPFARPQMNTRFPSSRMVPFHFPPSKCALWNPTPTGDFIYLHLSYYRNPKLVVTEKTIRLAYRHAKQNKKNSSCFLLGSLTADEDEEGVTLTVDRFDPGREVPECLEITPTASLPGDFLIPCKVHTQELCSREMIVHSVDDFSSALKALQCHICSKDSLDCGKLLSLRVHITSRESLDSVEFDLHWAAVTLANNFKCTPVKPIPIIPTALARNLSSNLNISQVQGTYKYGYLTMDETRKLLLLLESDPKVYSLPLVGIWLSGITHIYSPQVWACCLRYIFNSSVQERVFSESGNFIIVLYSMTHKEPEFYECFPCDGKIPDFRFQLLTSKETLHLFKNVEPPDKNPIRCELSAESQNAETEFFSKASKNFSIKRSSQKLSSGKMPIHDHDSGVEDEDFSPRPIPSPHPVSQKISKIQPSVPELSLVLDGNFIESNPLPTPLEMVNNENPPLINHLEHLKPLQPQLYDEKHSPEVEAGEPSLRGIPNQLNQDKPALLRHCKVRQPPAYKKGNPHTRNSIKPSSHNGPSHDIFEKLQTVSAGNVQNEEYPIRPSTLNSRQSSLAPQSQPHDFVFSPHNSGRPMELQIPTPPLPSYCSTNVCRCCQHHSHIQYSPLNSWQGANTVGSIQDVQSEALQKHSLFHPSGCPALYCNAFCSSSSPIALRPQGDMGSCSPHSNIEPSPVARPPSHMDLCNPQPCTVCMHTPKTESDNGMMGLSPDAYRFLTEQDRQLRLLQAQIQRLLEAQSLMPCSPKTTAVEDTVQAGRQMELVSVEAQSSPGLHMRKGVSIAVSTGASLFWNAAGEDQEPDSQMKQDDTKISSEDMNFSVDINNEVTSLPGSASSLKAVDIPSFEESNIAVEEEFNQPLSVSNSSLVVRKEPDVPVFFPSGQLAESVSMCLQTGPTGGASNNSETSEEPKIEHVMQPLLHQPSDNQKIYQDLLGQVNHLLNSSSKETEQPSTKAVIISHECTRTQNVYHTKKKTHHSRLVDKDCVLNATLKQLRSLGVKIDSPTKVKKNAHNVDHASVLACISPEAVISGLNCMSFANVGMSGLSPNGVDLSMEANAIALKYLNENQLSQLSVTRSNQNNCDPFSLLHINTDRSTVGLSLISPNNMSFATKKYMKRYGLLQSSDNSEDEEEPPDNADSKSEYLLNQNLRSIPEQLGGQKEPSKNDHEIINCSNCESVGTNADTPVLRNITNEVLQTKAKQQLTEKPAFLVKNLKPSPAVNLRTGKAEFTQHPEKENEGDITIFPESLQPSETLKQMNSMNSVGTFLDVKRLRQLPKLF

The variants in one assay derive from B1. To be noted: with stil_human STIL.
Consider E1235V, for which the “effect of a mutation on the interaction” value is recorded as “decreasing interaction”.

The next assay covers variants of B1. The settings on record: with stil_human STIL. This is another data set of the same source.
Regarding E1235V, the “effect of a mutation on the interaction” value was “disrupting interaction”.

The values above are taken from IntAct's records for PubMed 22020124.
